Assay results as given in US9566335 (GOVERNING COUNCIL OF THE UNIVERSITY OF TORONTO, dated 2017).
Where a chain is given by its changes, count along the chain named. No end group written: not given here. *: point of attachment. Biotin = O=C1N[C@H]2[C@H](CS[C@H]2CCCCC(=O)*)N1

B1: biotinylated peptide X-SDGMFTAGSLIGK(biotin), X = L (peptide)
peptide: LSDGMFTAGSLIGK(Biotin)
notes: also called Leu peptide
B2: ClpS Variant 1 (Trp-binding ClpS variant), phage displayed (designed binder)
chain: KPPSMYKVILVNDDYTPAEFCIDVLQKFFSYDVERATQLCLAAHYQGKAICGVFTAEVAETKVAMVNKYARENEHAALCTLEKA
notes: tested as phage; also called ClpS variant W1; W1; not shown: N-terminal FLAG tag of the phage display construct; C-terminal phage coat protein p3 of the phage display construct
B3: Phage displayed wild-type E. coli ClpS (truncated wildtype ClpS polypeptide, FLAG-tagged, fused to phage coat protein p3) (other)
chain: B2 chain with A18M, C21V, C40M, A43V, A76P, A77L
notes: also called ClpS Wt; ClpS WT; not shown: N-terminal FLAG tag

What follows are binders tested against B3 (assay: phage ELISA).

**Q.** Does WSDGMFTAGSLIGK(Biotin) (also called Wpep; Trp peptide) [biotinylated peptide X-SDGMFTAGSLIGK(biotin), X = W] bind?
**A.** Result: binds

**Q.** Does B1 bind?
**A.** Result: binds

Biological target: B1
Assay: phage ELISA

**Q.** Does B2 bind?
**A.** Result: no binding

What follows are binders tested against T1, bovine serum albumin (bovine, UniProt P02769 25-607) (assay: phage ELISA, FIG. 6B).
T1 construct: also called BSA
T1 sequence (P02769 25-607 limits assumed): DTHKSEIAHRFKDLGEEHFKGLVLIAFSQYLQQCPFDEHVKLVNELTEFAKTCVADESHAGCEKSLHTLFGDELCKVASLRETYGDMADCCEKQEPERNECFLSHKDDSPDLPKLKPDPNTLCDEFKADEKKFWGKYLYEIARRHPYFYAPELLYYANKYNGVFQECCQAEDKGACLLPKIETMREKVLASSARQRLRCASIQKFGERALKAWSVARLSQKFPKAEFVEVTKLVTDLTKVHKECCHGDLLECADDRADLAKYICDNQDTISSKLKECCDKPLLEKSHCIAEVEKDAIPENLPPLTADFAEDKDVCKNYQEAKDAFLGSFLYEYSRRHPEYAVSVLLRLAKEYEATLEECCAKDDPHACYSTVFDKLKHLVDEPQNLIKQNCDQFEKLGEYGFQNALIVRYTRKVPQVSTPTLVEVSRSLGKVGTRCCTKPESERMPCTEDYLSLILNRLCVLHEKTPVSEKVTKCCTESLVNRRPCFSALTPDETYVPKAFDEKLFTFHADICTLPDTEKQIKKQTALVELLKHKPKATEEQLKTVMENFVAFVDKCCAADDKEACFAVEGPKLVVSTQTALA

**Q.** Does B3 bind?
**A.** Result: no binding

The binders below were run against T2, streptavidin (UniProt P22629 37-163) (assay: phage ELISA, FIG. 6B).
T2 construct: also called SA
T2 sequence (P22629 37-163 limits assumed): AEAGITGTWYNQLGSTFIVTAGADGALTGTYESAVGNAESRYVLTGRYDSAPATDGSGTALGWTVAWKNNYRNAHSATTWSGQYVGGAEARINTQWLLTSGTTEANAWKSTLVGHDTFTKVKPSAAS

**Q.** Does B3 bind?
**A.** Result: no binding

Biological target: B2
Assay: competitive phage ELISA against immobilised Wpep

**Q.** Does RSDGMFTAGSLI [non-biotinylated peptide XSDGMFTAGSLI, X = R] bind?
**A.** Result: no binding (tested: 10 uM)

**Q.** Does ASDGMFTAGSLI [non-biotinylated peptide XSDGMFTAGSLI, X = A] bind?
**A.** Result: no binding (tested: 10 uM)

**Q.** Does MSDGMFTAGSLI [non-biotinylated peptide XSDGMFTAGSLI, X = M] bind?
**A.** Result: no binding (tested: 10 uM)

**Q.** Does QSDGMFTAGSLI [non-biotinylated peptide XSDGMFTAGSLI, X = Q] bind?
**A.** Result: no binding (tested: 10 uM)

**Q.** Does TSDGMFTAGSLI [non-biotinylated peptide XSDGMFTAGSLI, X = T] bind?
**A.** Result: no binding (tested: 10 uM)

**Q.** Does DSDGMFTAGSLI [non-biotinylated peptide XSDGMFTAGSLI, X = D] bind?
**A.** Result: no binding (tested: 10 uM)

**Q.** Does ESDGMFTAGSLI [non-biotinylated peptide XSDGMFTAGSLI, X = E] bind?
**A.** Result: no binding (tested: 10 uM)

**Q.** Does SSDGMFTAGSLI [non-biotinylated peptide XSDGMFTAGSLI, X = S] bind?
**A.** Result: no binding (tested: 10 uM)

**Q.** Does KSDGMFTAGSLI [non-biotinylated peptide XSDGMFTAGSLI, X = K] bind?
**A.** Result: no binding (tested: 10 uM)

**Q.** Does HSDGMFTAGSLI [non-biotinylated peptide XSDGMFTAGSLI, X = H] bind?
**A.** Result: no binding (tested: 10 uM)

**Q.** Does PSDGMFTAGSLI [non-biotinylated peptide XSDGMFTAGSLI, X = P] bind?
**A.** Result: no binding (tested: 10 uM)

**Q.** Does CSDGMFTAGSLI [non-biotinylated peptide XSDGMFTAGSLI, X = C] bind?
**A.** Result: no binding (tested: 10 uM)

**Q.** Does NSDGMFTAGSLI [non-biotinylated peptide XSDGMFTAGSLI, X = N] bind?
**A.** Result: no binding (tested: 10 uM)

**Q.** Does VSDGMFTAGSLI [non-biotinylated peptide XSDGMFTAGSLI, X = V] bind?
**A.** Result: no binding (tested: 10 uM)

Biological target: B2
Assay: competitive phage ELISA, 10 uM free peptide against immobilised Wpep

**Q.** Does ISDGMFTAGSLI [non-biotinylated peptide XSDGMFTAGSLI, X = I] bind?
**A.** Result: binds

**Q.** Does YSDGMFTAGSLI [non-biotinylated peptide XSDGMFTAGSLI, X = Y] bind?
**A.** Result: binds

**Q.** Does LSDGMFTAGSLI [non-biotinylated peptide XSDGMFTAGSLI, X = L] bind?
**A.** Result: binds

**Q.** Does FSDGMFTAGSLI [non-biotinylated peptide XSDGMFTAGSLI, X = F] bind?
**A.** Result: binds

**Q.** Does GSDGMFTAGSLI [non-biotinylated peptide XSDGMFTAGSLI, X = G] bind?
**A.** Result: binds

Biological target: B2
Assay: competitive phage ELISA: W1 phage equilibrated with free peptide, then on immobilised Wpep(biotin)

**Q.** For WSDGMFTAGSLI (also called Wpep) [non-biotinylated peptide XSDGMFTAGSLI, X = W], which IC50 is on record?
**A.** Its IC50 is roughly 1000 nM.

**Q.** What about the “binding remaining at 10 uM competitor (relative to no competitor)” value of the same binder?
**A.** The value was 11%.
